Reference: patent US20170088631A1 (Hoffmann-La Roche, published 2017)
One block for each binder: values may come before it.

How the values were obtained:
[1] = target: T1, human Fibroblast Activation Protein (FAP), recombinant (human, UniProt Q12884 27-760); experiment: SPR (Biacore), His-tagged human FAP captured by anti-His antibody, antibody as analyte, 25 C; apparent bivalent affinity (avidity), 1:1 fit
T1 construct: they are treated as one molecule; also called Hu FAP; huFAP
Description: The FAP binding activity of the IgG-IL-2 qm immunoconjugates based on 4G8 and 28H1 anti-FAP antibodies were determined by surface plasmon resonance (SPR) on a Biacore machine in comparison to the corresponding unmodified IgG antibodies. […] Temperature was 25° C. and HBS-EP was used as buffer. Analyte concentration was 50 nM down to 0.05 nM at a flow rate of 50 μl/min (association: 300 s, dissociation: 900 s, regeneration: 60 s with 10 mM glycine pH 2). Fitting was performed based on a 1:1 binding model, RI=0, Rmax=local (because of capture format).

[2] = target: T2, human A2 domain of Tenascin-C (TNC A2), recombinant (human, UniProt P24821 1167-1256, limits assumed, biotinylated via a C-terminal avi-tag (Example 5)); experiment: SPR (ProteOn XPR36), NLC chip, biotinylated TNC A2 as ligand (250 RU), construct as analyte, 1:1 global fit; human TNC A2 as ligand
T2 construct: domain: A2 domain of Tenascin-C; also called human TNC A2
T2 sequence (looked up): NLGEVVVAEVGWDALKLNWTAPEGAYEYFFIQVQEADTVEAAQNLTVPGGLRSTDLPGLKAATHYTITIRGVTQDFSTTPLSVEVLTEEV

[3] = target: T1, human Fibroblast Activation Protein …; experiment: SPR (ProteOn XPR36), GLM chip, huFAP as ligand by amine coupling (500 RU), construct as analyte, 1:1 global fit

T1 sequence (Q12884 27-760 limits assumed): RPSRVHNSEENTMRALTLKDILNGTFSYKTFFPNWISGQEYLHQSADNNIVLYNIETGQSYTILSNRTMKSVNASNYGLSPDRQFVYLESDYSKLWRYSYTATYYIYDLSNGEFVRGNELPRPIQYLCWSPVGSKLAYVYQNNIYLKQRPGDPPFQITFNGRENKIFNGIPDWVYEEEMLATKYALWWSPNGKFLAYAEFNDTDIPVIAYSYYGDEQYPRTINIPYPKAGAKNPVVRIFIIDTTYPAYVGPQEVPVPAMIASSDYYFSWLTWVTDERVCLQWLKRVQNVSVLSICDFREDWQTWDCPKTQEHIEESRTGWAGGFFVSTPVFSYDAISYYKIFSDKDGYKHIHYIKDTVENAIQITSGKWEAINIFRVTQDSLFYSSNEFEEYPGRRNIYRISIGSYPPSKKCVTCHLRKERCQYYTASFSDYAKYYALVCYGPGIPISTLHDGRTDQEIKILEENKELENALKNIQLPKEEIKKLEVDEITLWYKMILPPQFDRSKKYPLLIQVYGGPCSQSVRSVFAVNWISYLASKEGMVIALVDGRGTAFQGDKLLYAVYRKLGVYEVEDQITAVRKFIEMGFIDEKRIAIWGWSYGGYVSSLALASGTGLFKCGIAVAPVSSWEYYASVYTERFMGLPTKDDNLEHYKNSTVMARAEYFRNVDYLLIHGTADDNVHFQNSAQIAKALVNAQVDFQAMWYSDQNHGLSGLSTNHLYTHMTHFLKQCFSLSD

B1: 4G8 IgG (unmodified anti-FAP antibody) (antibody, V domains shown)
VH: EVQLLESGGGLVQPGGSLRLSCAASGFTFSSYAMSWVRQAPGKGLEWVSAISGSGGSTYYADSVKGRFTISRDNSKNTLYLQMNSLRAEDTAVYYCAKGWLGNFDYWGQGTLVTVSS
VL: EIVLTQSPGTLSLSPGERATLSCRASQSVSRSYLAWYQQKPGQAPRLLIIGASTRATGIPDRFSGSGSGTDFTLTISRLEPEDFAVYYCQQGQVIPPTFGQGTKVEIK
Kd [1]: 0.05 nM

B4: FAP-targeted 4G8-based IgG-IL-10 immunoconjugate with monomeric IL-10 (IL-10M1) (other)
heavy 1: not shown
heavy 2: not shown
light: EVQLLESGGGLVQPGGSLRLSCAASGFTFSRYGMSWVRQAPGKGLEWVSAISGSGGSTYYADSVKGRFTISRDNSKNTLYLQMNSLRAEDTAVYYCAKAHNAFDYWGQGTLVTVSSASTKGPSVFPLAPSSKSTSGGTAALGCLVKDYFPEPVTVSWNSGALTSGVHTFPAVLQSSGLYSLSSVVTVPSSSLGTQTYICNVNHKPSNTKVDKKVEPKSCDSSSSGSSSSGSSSSGAPASSSTKKTQLQLEHLLLDLQMILNGINNYKNPKLTRMLTAKFAMPKKATELKHLQCLEEELKPLEEVLNGAQSKNFHLRPRDLISNINVIVLELKGSETTFMCEYADETATIVEFLNRWITFAQSIISTLTSGGGGSGGGGSGGGGEVQLLESGGGLVQPGGSLRLSCAASGFTFSRYGMSWVRQAPGKGLEWVSAISGSGGSTYYADSVKGRFTISRDNSKNTLYLQMNSLRAEDTAVYYCAKAHNAFDYWGQGTLVTVSSASTKGPSVFPLAPSSKSTSGGTAALGCLVKDYFPEPVTVSWNSGALTSGVHTFPAVLQSSGLYSLSSVVTVPSSSLGTQTYICNVNHKPSNTKVDKKVEPKSCD
notes: P329G LALA in the Fc; also called 4G8 IgG-IL-10M1; FAP 4G8 IgG-IL-10M1
Kd [3]: 0.026 nM | koff [3]: 1.75e-05 s⁻¹ | kon [3]: 668000 M⁻¹ s⁻¹

More lines, now with the values ahead:

Kd [1]: 0.2 nM
B2: 28H1 IgG (unmodified anti-FAP antibody) (antibody, V domains shown)
VH: EVQLLESGGGLVQPGGSLRLSCAASGFTFSSHAMSWVRQAPGKGLEWVSAIWASGEQYYADSVKGRFTISRDNSKNTLYLQMNSLRAEDTAVYYCAKGWLGNFDYWGQGTLVTVSS
VL: EIVLTQSPGTLSLSPGERATLSCRASQSVSRSYLAWYQQKPGQAPRLLIIGASTRATGIPDRFSGSGSGTDFTLTISRLEPEDFAVYYCQQGQVIPPTFGQGTKVEIK
notes: Corresponding unmodified IgG of the 28H1 immunoconjugate

Kd [2]: 0.052 nM | koff [2]: 9.35e-05 s⁻¹ | kon [2]: 1.8e+06 M⁻¹ s⁻¹
B3: TNC A2-targeted 2B10-based IgG-IL-10 immunoconjugate with monomeric IL-10 (IL-10M1) (other)
heavy 1: EIVLTQSPGTLSLSPGERATLSCRASQSVSRSYLAWYQQKPGQAPRLLIIGASTRATGIPDRFSGSGSGTDFTLTISRLEPEDFAVYYCQQGQVIPPTFGQGTKVEIKRTVAAPSVFIFPPSDEQLKSGTASVVCLLNNFYPREAKVQWKVDNALQSGNSQESVTEQDSKDSTYSLSSTLTLSKADYEKHKVYACEVTHQGLSSPVTKSFNRGEC
heavy 2: EIVLTQSPGTLSLSPGERATLSCRASQSVSSSYLAWYQQKPGQAPRLLIYGASSRATGIPDRFSGSGSGTDFTLTISRLEPEDFAVYYCQQGQYTPPTFGQGTKVEIKRTVAAPSVFIFPPSDEQLKSGTASVVCLLNNFYPREAKVQWKVDNALQSGNSQESVTEQDSKDSTYSLSSTLTLSKADYEKHKVYACEVTHQGLSSPVTKSFNRGEC
light: EIVLTQSPGTLSLSPGERATLSCRASQSVSSNYLAWYQQKPGQAPRLLIYGAYIRATGIPDRFSGSGSGTDFTLTISRLEPEDFAVYYCQQGQVIPPTFGQGTKVEIKRTVAAPSVFIFPPSDEQLKSGTASVVCLLNNFYPREAKVQWKVDNALQSGNSQESVTEQDSKDSTYSLSSTLTLSKADYEKHKVYACEVTHQGLSSPVTKSFNRGEC
notes: P329G LALA in the Fc; also called 2B10 IgG-IL-10M1; TNCA2 2B10 IgG-IL-10M1
